Legend:
FcγRIIB/C (human) = FcγRIIB/C (human) (UniProt P31994); assay: SPR
[1] = target: Gama Fc Receptor 1 (CD64) (human) (UniProt P12314); assay: SPR
FcγRIIA R167 (human) = FcγRIIA R167 (human) (UniProt P12318); assay: SPR
C1q (human) = C1q (human) (UniProt P02745); assay: ELISA; C1q binding ELISA: plates coated with 5 ug/mL CA521 subtypes or OPDIVO (IgG4), fourfold serial dilutions starting at 40 ug/mL, 2 h at 37 C, C1q detected by HRP anti-human C1q; x axis of the figure: antibody concentration (nM); duplicate
C1q (human), sequence (P02745 23-245, chain 1 of 3): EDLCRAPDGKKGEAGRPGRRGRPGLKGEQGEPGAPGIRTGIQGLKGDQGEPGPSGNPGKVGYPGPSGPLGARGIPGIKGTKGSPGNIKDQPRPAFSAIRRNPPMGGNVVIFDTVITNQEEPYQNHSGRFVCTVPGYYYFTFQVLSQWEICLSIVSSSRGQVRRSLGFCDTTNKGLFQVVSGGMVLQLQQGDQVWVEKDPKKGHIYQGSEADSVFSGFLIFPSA
C1q (human), sequence (P02746 28-253, chain 2 of 3, further chain): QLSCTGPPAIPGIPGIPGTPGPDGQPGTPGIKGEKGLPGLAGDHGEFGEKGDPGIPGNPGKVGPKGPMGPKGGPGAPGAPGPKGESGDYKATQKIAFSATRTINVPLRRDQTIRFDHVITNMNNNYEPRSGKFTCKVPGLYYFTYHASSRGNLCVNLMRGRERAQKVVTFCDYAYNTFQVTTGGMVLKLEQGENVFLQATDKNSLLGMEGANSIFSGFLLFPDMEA
C1q (human), sequence (P02747 29-245, chain 3 of 3, further chain): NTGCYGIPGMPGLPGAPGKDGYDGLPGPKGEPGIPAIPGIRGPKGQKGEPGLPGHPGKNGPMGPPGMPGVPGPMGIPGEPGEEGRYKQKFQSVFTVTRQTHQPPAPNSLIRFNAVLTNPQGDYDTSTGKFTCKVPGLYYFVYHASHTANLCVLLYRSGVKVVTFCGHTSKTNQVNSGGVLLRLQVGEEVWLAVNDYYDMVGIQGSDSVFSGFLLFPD

FcγRIIA R167 (human), sequence (P12318 34-217 H167R): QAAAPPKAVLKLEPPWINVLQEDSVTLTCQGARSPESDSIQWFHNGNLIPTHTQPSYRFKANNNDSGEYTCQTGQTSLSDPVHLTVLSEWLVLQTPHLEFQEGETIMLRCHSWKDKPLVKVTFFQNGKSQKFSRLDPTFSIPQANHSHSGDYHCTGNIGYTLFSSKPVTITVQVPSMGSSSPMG
Gama Fc Receptor 1 (CD64) (human), sequence (P12314 16-374): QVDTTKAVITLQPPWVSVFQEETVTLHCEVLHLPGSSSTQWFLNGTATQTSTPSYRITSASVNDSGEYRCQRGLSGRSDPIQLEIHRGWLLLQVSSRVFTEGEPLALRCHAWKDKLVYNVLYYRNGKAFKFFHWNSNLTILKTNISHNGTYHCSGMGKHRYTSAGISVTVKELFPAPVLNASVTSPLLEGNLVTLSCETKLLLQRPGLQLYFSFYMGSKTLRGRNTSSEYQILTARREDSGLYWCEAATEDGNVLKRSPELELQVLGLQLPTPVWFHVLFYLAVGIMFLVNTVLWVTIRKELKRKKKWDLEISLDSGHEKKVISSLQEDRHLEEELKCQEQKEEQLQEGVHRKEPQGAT
FcγRIIB/C (human), sequence (P31994 43-217): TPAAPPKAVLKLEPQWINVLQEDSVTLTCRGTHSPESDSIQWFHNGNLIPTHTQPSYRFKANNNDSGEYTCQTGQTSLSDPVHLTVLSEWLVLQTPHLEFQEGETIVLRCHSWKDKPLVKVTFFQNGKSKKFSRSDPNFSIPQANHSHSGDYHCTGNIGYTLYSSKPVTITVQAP

| IC50 (C1q (human)) | Substance | Kd (FcγRIIB/C (human)) | Kd [1] | Kd (FcγRIIA R167 (human)) |
| --- | --- | --- | --- | --- |
|  | CA521(IgG1) (from UniProt P01857) | 20400 nM | 3.12 nM | 5110 nM |
| 35.9 nM | Opdivo (IgG4) (antibody) |  |  |  |

Reference: PMC8065039
